Measurements as given in patent WO2020033925A2 (dated 2020).

Molecular target: human BTN3A1 ectopically expressed on K32 cells (human, UniProt O00481 30-513)
Experiment: cell-based or functional assay

human BTN3A1 ectopically expressed on K32 cells, sequence (O00481 30-513 limits assumed, form in doubt): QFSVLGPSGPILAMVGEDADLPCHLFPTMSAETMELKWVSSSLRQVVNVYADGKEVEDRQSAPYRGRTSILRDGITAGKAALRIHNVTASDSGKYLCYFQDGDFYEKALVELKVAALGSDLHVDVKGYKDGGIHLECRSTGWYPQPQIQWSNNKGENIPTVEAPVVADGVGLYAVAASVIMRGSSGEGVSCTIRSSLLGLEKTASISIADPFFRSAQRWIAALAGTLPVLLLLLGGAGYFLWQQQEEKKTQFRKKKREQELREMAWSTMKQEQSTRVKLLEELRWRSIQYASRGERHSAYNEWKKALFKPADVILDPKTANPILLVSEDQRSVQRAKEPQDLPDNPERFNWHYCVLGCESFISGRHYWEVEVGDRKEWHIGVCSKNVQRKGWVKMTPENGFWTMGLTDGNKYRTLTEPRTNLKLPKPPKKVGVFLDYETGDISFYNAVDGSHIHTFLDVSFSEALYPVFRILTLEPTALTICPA

- proliferation of gated CD4+ T cells within total PBMCs co-cultured with anti-CD3/anti-CD28 coated BTN-K32 cells (Figure 3A): ≥ 1.5 fold
- proliferation of gated CD8+ T cells within total PBMCs co-cultured with anti-CD3/anti-CD28 coated BTN-K32 cells (Figure 3C): ≥ 1.5 fold
- proliferation of purified CD4+ T cells stimulated with BTN-K32 cells (Figure 4A): ≥ 1.5 fold
- proliferation of purified CD8+ T cells stimulated with BTN-K32 cells (Figure 4C): ≥ 2 fold
- release of IFN-g from purified CD4+ T cells stimulated with BTN-K32 cells (ELISA, Figure 5A): > 2 fold
- release of IFN-g from purified CD8+ T cells stimulated with BTN-K32 cells (ELISA, Figure 5C): ~1300 fold
B1: anti-CD277 monoclonal antibody mAb1 (antibody, V domains shown)
VH: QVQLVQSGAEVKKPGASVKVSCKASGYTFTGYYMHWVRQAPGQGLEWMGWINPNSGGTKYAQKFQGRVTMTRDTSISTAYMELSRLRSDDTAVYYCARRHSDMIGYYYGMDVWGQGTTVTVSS
VL: DIQMTQSPSSVSASVGDRVTITCRASQGISSWLAWYQQKPGKAPKLLIYAASSLQSGVPSRFSGSGSGTDFTLTISSLQPEDFATYYCQQATDFPPTFGGGTKVEIK
